{"source": "patent US20250066422A1", "about": "(published 2025)"}
{"biological_target": "T1, HLA-A*0201 (human)", "T1 construct": "MHC monomer first loaded with a UV-sensitive peptide that is cleaved and exchanged for the test peptide; captured on streptavidin; also called peptide-receptive MHC molecules", "experiment": "UV-ligand exchange, streptavidin/anti-b2m sandwich ELISA", "description": "Candidate peptides for the vaccines according to the present invention were further tested for immunogenicity by in vitro priming assays. The individual peptide-MHC complexes required for these assays were produced by UV-ligand exchange, where a UV-sensitive peptide is cleaved upon UV-irradiation, and exchanged with the peptide of interest as analyzed. Only peptide candidates that can effectively bind and stabilize the peptide-receptive MHC molecules prevent dissociation of the MHC complexes. To determine the yield of the exchange reaction, an ELISA was performed based on the detection of the light chain (β2m) of stabilized MHC complexes.\n96 well MAXISorp plates (NUNC) were coated over night with 2ug/ml streptavidin in PBS at room temperature, washed 4× and blocked for 30 min at 37° C. in 2% BSA containing blocking buffer. Refolded HLAA*0201/MLA-001 monomers served as standards, covering the range of 8-500 ng/ml. Peptide-MHC monomers of the UV-exchange reaction were diluted 100 fold in blocking buffer. Samples were incubated for 1 h at 37° C., washed four times, incubated with 2ug/ml HRP conjugated anti-β2m for 1 h at 37° C., washed again and detected with TMB solution that is stopped with […]. Absorption was measured at 450 nm.", "units": {"Average exchange yield in %": "%"}}
{"binder": "ALDENLHQL (synthetic peptide from ABCA13)", "note": "[ABCA13-002]", "Average exchange yield in %": 36}
{"binder": "AMFENFVSV (synthetic peptide from NCBP1)", "note": "[NCBP1-001]", "Average exchange yield in %": 65}
{"binder": "YLAPFLRNV (synthetic peptide from CNOT1)", "note": "[CNOT1-001]", "Average exchange yield in %": 57}
{"binder": "VLSVVEVTL (synthetic peptide from RNF213)", "note": "[RNF213-001]", "Average exchange yield in %": 84}
{"binder": "FLIPIYHQV (synthetic peptide from ACACA)", "note": "[ACACA-001]", "Average exchange yield in %": 61}
{"binder": "KVLEILHRV (synthetic peptide from HERC4)", "note": "[HERC4-001]", "Average exchange yield in %": 61}
{"binder": "SILTIEDGIFEV (synthetic peptide from HSPA2, HSPA8)", "note": "[HSP-002]", "Average exchange yield in %": 47}
{"binder": "FLLDGSANV (synthetic peptide from COL6A3)", "note": "[COL6A3-002]", "Average exchange yield in %": 81}
{"binder": "VVDKTLLLV (synthetic peptide from C11orf24)", "note": "[C11orf24-001]", "Average exchange yield in %": 47}
{"binder": "KIQEILTQV (synthetic peptide from IGF2BP3)", "note": "[IGF2BP3-001]", "Average exchange yield in %": 46}
{"binder": "SLIEDLILL (synthetic peptide from SMYD3)", "note": "[SMYD3-001]", "Average exchange yield in %": 50}
{"binder": "SLHFLILYV (synthetic peptide from ATP2A1, ATP2A2)", "note": "[ATP-001]", "Average exchange yield in %": 19}
{"binder": "TLSSIKVEV (synthetic peptide from MXRA5)", "note": "[MXRA5-001]", "Average exchange yield in %": 57}
{"binder": "ILVSWLPRL (synthetic peptide from NET1)", "note": "[NET1-001]", "Average exchange yield in %": 82}
{"binder": "ALVDHTPYL (synthetic peptide from VCAN)", "note": "[VCAN-002]", "Average exchange yield in %": 49}
{"binder": "SLAGDVALQQL (synthetic peptide from NCAPD2)", "note": "[NCAPD2-001]", "Average exchange yield in %": 76}
{"binder": "TLYPHTSQV (synthetic peptide from VCAN)", "note": "[VCAN-001]", "Average exchange yield in %": 41}
{"binder": "ALYDSVILL (synthetic peptide from DIO2)", "note": "[DIO2-001]", "Average exchange yield in %": 50}
{"binder": "ILFEINPKL (synthetic peptide from ABCA13)", "note": "[ABCA13-001]", "Average exchange yield in %": 93}
{"binder": "ALANQKLYSV (synthetic peptide from MDN1)", "note": "[MDN1-001]", "Average exchange yield in %": 67}
{"binder": "KLLTEVHAA (synthetic peptide from ADAM8)", "note": "[ADAM8-001]", "Average exchange yield in %": 67}
{"binder": "KLFGEKTYL (synthetic peptide from SERPINB3)", "note": "[SERPINB3-001]", "Average exchange yield in %": 47}
{"binder": "KLAVALLAA (synthetic peptide from IL8)", "note": "[IL8-001]", "Average exchange yield in %": 41}
{"binder": "SLLAQNTSWLL (synthetic peptide from THY1)", "note": "[THY1-001]", "Average exchange yield in %": 65}
{"binder": "SLLESNKDLLL (synthetic peptide from SLC3A2)", "note": "[SLC3A2-001]", "Average exchange yield in %": 56}
{"binder": "KIQEMQHFL (synthetic peptide from MMP12)", "note": "[MMP12-003]", "Average exchange yield in %": 57}
{"binder": "SLAPAGVIRV (synthetic peptide from TLX3)", "note": "[TLX3-001]", "Average exchange yield in %": 70}
{"binder": "FLHHLEIEL (synthetic peptide from ITGA11)", "note": "[ITGA11-001]", "Average exchange yield in %": 53}
{"binder": "GLAEDIDKGEV (synthetic peptide from EEF2)", "note": "[EEF2-002]", "Average exchange yield in %": 31}
{"binder": "HLLEDIAHV (synthetic peptide from NEFH)", "note": "[NEFH-001]", "Average exchange yield in %": 50}
{"binder": "SLYDNQITTV (synthetic peptide from SLIT1, SLIT2)", "note": "[SLI-001]", "Average exchange yield in %": 47}
{"binder": "ILMGTELTQV (synthetic peptide from OLFM1)", "note": "[OLFM1-001]", "Average exchange yield in %": 48}
{"binder": "YVYQNNIYL (synthetic peptide from FAP)", "note": "[FAP-003]", "Average exchange yield in %": 31}
{"binder": "NLLAEIHGV (synthetic peptide from DPYSL4)", "note": "[DPYSL4-001]", "Average exchange yield in %": 77}
{"binder": "ILQDRLNQV (synthetic peptide from CDC6)", "note": "[CDC6-001]", "Average exchange yield in %": 48}
{"binder": "ALASVIKEL (synthetic peptide from IFT81)", "note": "[IFT81-001]", "Average exchange yield in %": 57}
{"binder": "KLDETNNTL (synthetic peptide from DST)", "note": "[DST-002]", "Average exchange yield in %": 59}
{"binder": "TLISRLPAV (synthetic peptide from RCC1)", "note": "[RCC1-001]", "Average exchange yield in %": 77}
{"binder": "SLIDADPYL (synthetic peptide from CCNA2)", "note": "[CCNA2-001]", "Average exchange yield in %": 54}
{"binder": "KLLEYIEEI (synthetic peptide from HMMR)", "note": "[HMMR-001]", "Average exchange yield in %": 49}
{"binder": "VLAPLFVYL (synthetic peptide from FZD1, FZD2, FZD7)", "note": "[FZD-001]", "Average exchange yield in %": 52}
{"binder": "ALYGRLEVV (synthetic peptide from ANKS1A)", "note": "[ANKS1A-001]", "Average exchange yield in %": 78}
{"binder": "TVAEVIQSV (synthetic peptide from KIF26B)", "note": "[KIF26B-001]", "Average exchange yield in %": 68}
{"binder": "YLPHAPPFA (synthetic peptide from JUNB)", "note": "[JUNB-001]", "Average exchange yield in %": 51}
{"binder": "AMLAVLHTV (synthetic peptide from C12orf44)", "note": "[C12orf44-001]", "Average exchange yield in %": 34}
{"binder": "RVLPPSALQSV (synthetic peptide from AURKB)", "note": "[AURKB-001]", "Average exchange yield in %": 54}
{"binder": "NLIEKSIYL (synthetic peptide from DST)", "note": "[DST-001]", "Average exchange yield in %": 50}
{"binder": "AILDTLYEV (synthetic peptide from PLEKHA8)", "note": "[PLEKHA8-001]", "Average exchange yield in %": 47}
{"binder": "FQYDHEAFL (synthetic peptide from RCN1, RCN3)", "note": "[RCN1-001]", "Average exchange yield in %": 75}
{"binder": "SISDVIAQV (synthetic peptide from ANKH)", "note": "[ANKH-001]", "Average exchange yield in %": 52}
{"binder": "KIVDFSYSV (synthetic peptide from BUB1B)", "note": "[BUB1B-001]", "Average exchange yield in %": 59}
{"binder": "SLLPVDIRQYL (synthetic peptide from STAT2)", "note": "[STAT2-001]", "Average exchange yield in %": 69}
{"binder": "AMSSKFFLV (synthetic peptide from WNT5A)", "note": "[WNT5A-001]", "Average exchange yield in %": 37}
{"binder": "KIYNEFISV (synthetic peptide from RGS4)", "note": "[RGS4-001]", "Average exchange yield in %": 49}
{"binder": "SMSGYDQVL (synthetic peptide from HNRNPH1, HNRNPH2)", "note": "[HNRNPH-001]", "Average exchange yield in %": 26}
{"binder": "ILFPDIIARA (synthetic peptide from MAGEF1)", "note": "[MAGEF1-001]", "Average exchange yield in %": 83}
{"binder": "GLIEIISNA (synthetic peptide from SNRNP200)", "note": "[SNRNP20-001]", "Average exchange yield in %": 54}
{"binder": "TLTNIIHNL (synthetic peptide from ORMDL1)", "note": "[ORMDL1-002]", "Average exchange yield in %": 61}
{"binder": "TVIGFLLPFA (synthetic peptide from P2RY6)", "note": "[P2RY6-001]", "Average exchange yield in %": 91}
{"binder": "KLSWDLIYL (synthetic peptide from CERCAM)", "note": "[CERC-001]", "Average exchange yield in %": 62}
{"binder": "ALWEKNTHL (synthetic peptide from CEP250)", "note": "[CEP250-002]", "Average exchange yield in %": 70}
{"binder": "VLLPVEVATHYL (synthetic peptide from SLC34A2)", "note": "[SLC34A2-001]", "Average exchange yield in %": 51}
{"binder": "AMATESILHFA (synthetic peptide from PI4KA)", "note": "[PI4KA-001]", "Average exchange yield in %": 51}
{"binder": "AIDGNNHEV (synthetic peptide from GFPT2)", "note": "[GFPT2-001]", "Average exchange yield in %": 43}
{"binder": "SLWGGDVVL (synthetic peptide from VPS13B)", "note": "[VPS13B-001]", "Average exchange yield in %": 63}
{"binder": "GLTDNIHLV (synthetic peptide from MXRA5)", "note": "[MXRA5-002]", "Average exchange yield in %": 56}
{"binder": "SLVAVELEKV (synthetic peptide from COG4)", "note": "[COG4-001]", "Average exchange yield in %": 57}
{"binder": "GLYPDAFAPV (synthetic peptide from ELANE)", "note": "[ELANE-001]", "Average exchange yield in %": 62}
